Laboratory results from patent publication US5646028A, “Alkaline serine protease streptomyces griseus var. alkaliphus having enhanced stability against urea or guanidine” (The Clorox Company, priority 1995, dated 1997).
Where two headings read alike, the source gives them in different places.

Key:
[1] = Wash performance test, beaker-scale grass stain removal from cotton swatches
pH profile of SGPC = format: biochemical; conditions: 2 mM SAAPFpNA, 10% DMSO
[2] = for % activity compared to the non-treated control: 24° C., pH 5.0

B1: SGPC: alkaline serine protease from Streptomyces griseus var. alkaliphilus No. 33, apparent molecular weight about 19,000 daltons (protein, UniProt P52320 203-457, looked up)
Streptogrisin-C: ADIRGGDAYYMNGSGRCSVGFSVTRGTQNGFATAGHCGRVGTTTNGVNQQAQGTFQGSTFPGRDIAWVATNANWTPRPLVNGYGRGDVTVAGSTASVVGASVCRSGSTTGWHCGTIQQLNTSVTYPEGTISGVTRTSVCAEPGDSGGSYISGSQAQGVTSGGSGNCSSGGTTYFQPINPLLQAYGLTLVTSGGGTPTDPPTTPPTDSPGGTWAVGTAYAAGATVTYGGATYRCLQAHTAQPGWTPADVPALWQRV
- effectiveness against grass stain compared with Savinase ([1]; equal weight of protease in the wash liquor): more effective than Savinase
- (delta) % SRE (percent stain removal over a control containing no enzyme) ([1]; grass stain, cotton swatches, 37° C., powdered detergent 104 g/69 liters, pH 10.5, 0.25 mg protease/500 ml wash liquor): 59.6%
- pH optimum (in words) (pH profile of SGPC): highly alkaline pH optimum
- % activity compared to the non-treated control ([2]; 2 M Guanidine, 1 hour): 125.7%
- % activity compared to the non-treated control ([2]; 2 M Guanidine, 24 hours): 105.7%
- % activity compared to the non-treated control ([2]; 2 M Urea, 1 hour): 103.5%
- % activity compared to the non-treated control ([2]; 2 M Urea, 24 hours): 98.1%
- effect on the activity (in words) ([2]; 2 M to 6 M urea, 24 hr vs 1 hr): very little effect
- % activity compared to the non-treated control ([2]; 4 M Guanidine, 1 hour): 130.4%
- % activity compared to the non-treated control ([2]; 4 M Guanidine, 24 hours): 55.8%
- % activity compared to the non-treated control ([2]; 4 M Urea, 1 hour): 118.2%
- % activity compared to the non-treated control ([2]; 4 M Urea, 24 hours): 112.4%
- % activity compared to the non-treated control ([2]; 6 M Guanidine, 1 hour): 98.0%
- % activity compared to the non-treated control ([2]; 6 M Guanidine, 24 hours): 10.1%
- % activity compared to the non-treated control ([2]; 6 M Urea, 1 hour): 116.4%
- % activity compared to the non-treated control ([2]; 6 M Urea, 24 hours): 112.9%
- effect on the activity (in words) ([2]; Guanidine 4 M to 6 M, 24 hr): substantial losses of activity
- effect on the activity (in words) ([2]; Guanidine at 2 M, 24 hr): slight effect
